From patent publication US20170285043A1 (WHITEHEAD INSTITUTE FOR BIOMEDICAL RESEARCH, published 2017)

B1: FLAG-Sestrin1 (other)
chain: MAEGENEVRWDGLCSRDSTTRETALENIRQTILRKTEYLRSVKETPHRPSDGLSNTESSDGLNKLLAHLLMLSKRCPFKDVREKSEFILKSIQELGIRIPRPLGQGPSRFIPEKEILQVGSEDAQMHALFADSFAALGRLDNITLVMVFHPQYLESFLKTQHYLLQMDGPLPLHYRHYIGIMAAARHQCSYLVNLHVNDFLHVGGDPKWLNGLENAPQKLQNLGELNKVLAHRPWLITKEHIEGLLKAEEHSWSLAELVHAVVLLTHYHSLASFTFGCGISPEIHCDGGHTFRPPSVSNYCICDITNGNHSVDEMPVNSAENVSVSDSFFEVEALMEKMRQLQECRDEEEASQEEMASRFEIEKRESMFVFSSDDEEVTPARAVSRHFEDTSYGYKDFSRHGMHVPTFRVQDYCWEDHGYSLVNRLYPDVGQLIDEKFHIAYNLTYNTMAMHKDVDTSMLRRAIWNYIHCMFGIRYDDYDYGEINQLLDRSFKVYIKTVVCTPEKVTKRMYDSFWRQFKHSEKVHVNLLLIEARMQAELLYALRAITRYMT
notes: also called recombinant, FLAG-tagged Sestrin1; not shown: FLAG tag
B2: FLAG-Sestrin2 (other)
chain: MIVADSECRAELKDYLRFAPGGVGDSGPGEEQRESRARRGPRGPSAFIPVEEVLREGAESLEQHLGLEALMSSGRVDNLAVVMGLHPDYFTSFWRLHYLLLHTDGPLASSWRHYIAIMAAARHQCSYLVGSHMAEFLQTGGDPEWLLGLHRAPEKLRKLSEINKLLAHRPWLITKEHIQALLKTGEHTWSLAELIQALVLLTHCHSLSSFVFGCGILPEGDADGSPAPQAPTPPSEQSSPPSRDPLNNSGGFESARDVEALMERMQQLQESLLRDEGTSQEEMESRFELEKSESLLVTPSADILEPSPHPDMLCFVEDPTFGYEDFTRRGAQAPPTFRAQDYTWEDHGYSLIQRLYPEGGQLLDEKFQAAYSLTYNTIAMHSGVDTSVLRRAIWNYIHCVFGIRYDDYDYGEVNQLLERNLKVYIKTVACYPEKTTRRMYNLFWRHFRHSEKVHVNLLLLEARMQAALLYALRAITRYMT
notes: Transiently or stably expressed in HEK-293T cells; also called FLAG-tagged wild-type Sestrin2; wild-type Sestrin2; not shown: FLAG tag
B3: metap2 control protein (enzyme, UniProt P50579 1-478, looked up, not shown: small tags and cut ends)
chain: MAGVEEVAASGSHLNGDLDPDDREEGAASTAEEAAKKKRRKKKKSKGPSAAGEQEPDKESGASVDEVARQLERSALEDKERDEDDEDGDGDGDGATGKKKKKKKKKRGPKVQTDPPSVPICDLYPNGVFPKGQECEYPPTQDGRTAAWRTTSEEKKALDQASEEIWNDFREAAEAHRQVRKYVMSWIKPGMTMIEICEKLEDCSRKLIKENGLNAGLAFPTGCSLNNCAAHYTPNAGDTTVLQYDDICKIDFGTHISGRIIDCAFTVTFNPKYDTLLKAVKDATNTGIKCAGIDVRLCDVGEAIQEVMESYEVEIDGKTYQVKPIRNLNGHSIGQYRIHAGKTVPIVKGGEATRMEEGEVYAIETFGSTGKGVVHDDMECSHYMKNFDVGHVPIRLPRTKHLLNVINENFGTLAFCRRWLDRLGESKYLMALKNLCDLGIVDPYPPLCDIKGSYTAQFEHTILLRPTCKEVVSRGDDY
notes: Control protein; also called FLAG-Metap2; FLAG-metap2
B4: FLAG-Sestrin3 (other)
chain: MNRGGGSPSAAANYLLCTNCRKVLRKDKRIRVSQPLTRGPSAFIPEKEVVQANTVDERTNFLVEEYSTSGRLDNITQVMSLHTQYLESFLRSQFYMLRMDGPLPLPYRHYIAIMAAARHQCSYLINMHVDEFLKTGGIAEWLNGLEYVPQRLKNLNEINKLLAHRPWLITKEHIQKLVKTGENNWSLPELVHAVVLLAHYHALASFVFGSGINPERDPEISNGFRLISVNNFCVCDLANDNNIENASLSGSNFGIVDSLSELEALMERMKRLQEEREDEEASQEEMSTRFEKEKKESLFVVSGDTFHSFPHSDFEDDMIITSDVSRYIEDPGFGYEDFARRGEEHLPTFRAQDYTWENHGFSLVNRLYSDIGHLLDEKFRMVYNLTYNTMATHEDVDTTMLRRALFNYVHCMFGIRYDDYDYGEVNQLLERSLKVYIKTVTCYPERTTKRMYDSYWRQFKHSEKVHVNLLLMEARMQAELLYALRAITRHLT
notes: also called recombinant, FLAG-tagged Sestrin3; not shown: FLAG tag
B5: endogenous Sestrin2 (other)
chain: B2 chain
notes: Endogenous protein of human HEK-293T cells

Key:
[1] = biological target: T1, GATOR1, recombinant (HA-Depdc5, HA-Npr13, HA-Npr12) (UniProt O75140 1-1603; Q8WTW4 1-380; Q12980 1-569, limits assumed); experiment: anti-FLAG co-immunoprecipitation, transient co-expression in HEK-293T, immunoblot (FIG. 1B)
T1 construct: also called GATOR1 multi-protein complex; not shown: HA tag
Method: (§1) Two million HEK-293T cells were plated in 10 cm culture dishes and grown. Twenty-four hours later, cells were transfected via the polyethylenimine method (Boussif et al., 1995) with one or more of the pRK5-based cDNA expression plasmids in the following amounts: 300 ng FLAG-Metap2, 100 ng FLAG-WDR24, 50 ng FLAG-Sestrin1, 25 ng FLAG-Sestrin2, 200 ng FLAG-Sestrin3, 2 ng of FLAG-S6K1, or 200 ng each of HA-Mios, HA-WDR59, HA-WDR24, HA-Sec13, HA-Seh1L, HA-Depdc5, HA-Npr13, or HA-Npr12. The total amount of plasmid DNA in each transfection was normalized to 5 μg with empty pRK5.
(§2) The beads were washed 3 times with lysis buffer containing 500 mM NaCl. In the case of transient cotransfection assays to explore the interaction of the Sestrins with GATOR2, beads were incubated in the final salt wash for 30 minutes to reduce non-specific binding.

[2] = biological target: B3; experiment: as above
Method: as §1, §2

[3] = biological target: B2; experiment: as above
Method: as §1, §2

[4] = biological target: B4; experiment: as above
Method: as §1, §2

[5] = biological target: T2, FLAG-DEPDCS, a GATOR1 component (UniProt O75140 1-1603, limits assumed); experiment: anti-FLAG co-immunoprecipitation from stably expressing HEK-293T, immunoblot (FIG. 5A)
T2 construct: also called FLAG-DEPDC5; not shown: FLAG tag
T2 sequence (O75140 whole entry): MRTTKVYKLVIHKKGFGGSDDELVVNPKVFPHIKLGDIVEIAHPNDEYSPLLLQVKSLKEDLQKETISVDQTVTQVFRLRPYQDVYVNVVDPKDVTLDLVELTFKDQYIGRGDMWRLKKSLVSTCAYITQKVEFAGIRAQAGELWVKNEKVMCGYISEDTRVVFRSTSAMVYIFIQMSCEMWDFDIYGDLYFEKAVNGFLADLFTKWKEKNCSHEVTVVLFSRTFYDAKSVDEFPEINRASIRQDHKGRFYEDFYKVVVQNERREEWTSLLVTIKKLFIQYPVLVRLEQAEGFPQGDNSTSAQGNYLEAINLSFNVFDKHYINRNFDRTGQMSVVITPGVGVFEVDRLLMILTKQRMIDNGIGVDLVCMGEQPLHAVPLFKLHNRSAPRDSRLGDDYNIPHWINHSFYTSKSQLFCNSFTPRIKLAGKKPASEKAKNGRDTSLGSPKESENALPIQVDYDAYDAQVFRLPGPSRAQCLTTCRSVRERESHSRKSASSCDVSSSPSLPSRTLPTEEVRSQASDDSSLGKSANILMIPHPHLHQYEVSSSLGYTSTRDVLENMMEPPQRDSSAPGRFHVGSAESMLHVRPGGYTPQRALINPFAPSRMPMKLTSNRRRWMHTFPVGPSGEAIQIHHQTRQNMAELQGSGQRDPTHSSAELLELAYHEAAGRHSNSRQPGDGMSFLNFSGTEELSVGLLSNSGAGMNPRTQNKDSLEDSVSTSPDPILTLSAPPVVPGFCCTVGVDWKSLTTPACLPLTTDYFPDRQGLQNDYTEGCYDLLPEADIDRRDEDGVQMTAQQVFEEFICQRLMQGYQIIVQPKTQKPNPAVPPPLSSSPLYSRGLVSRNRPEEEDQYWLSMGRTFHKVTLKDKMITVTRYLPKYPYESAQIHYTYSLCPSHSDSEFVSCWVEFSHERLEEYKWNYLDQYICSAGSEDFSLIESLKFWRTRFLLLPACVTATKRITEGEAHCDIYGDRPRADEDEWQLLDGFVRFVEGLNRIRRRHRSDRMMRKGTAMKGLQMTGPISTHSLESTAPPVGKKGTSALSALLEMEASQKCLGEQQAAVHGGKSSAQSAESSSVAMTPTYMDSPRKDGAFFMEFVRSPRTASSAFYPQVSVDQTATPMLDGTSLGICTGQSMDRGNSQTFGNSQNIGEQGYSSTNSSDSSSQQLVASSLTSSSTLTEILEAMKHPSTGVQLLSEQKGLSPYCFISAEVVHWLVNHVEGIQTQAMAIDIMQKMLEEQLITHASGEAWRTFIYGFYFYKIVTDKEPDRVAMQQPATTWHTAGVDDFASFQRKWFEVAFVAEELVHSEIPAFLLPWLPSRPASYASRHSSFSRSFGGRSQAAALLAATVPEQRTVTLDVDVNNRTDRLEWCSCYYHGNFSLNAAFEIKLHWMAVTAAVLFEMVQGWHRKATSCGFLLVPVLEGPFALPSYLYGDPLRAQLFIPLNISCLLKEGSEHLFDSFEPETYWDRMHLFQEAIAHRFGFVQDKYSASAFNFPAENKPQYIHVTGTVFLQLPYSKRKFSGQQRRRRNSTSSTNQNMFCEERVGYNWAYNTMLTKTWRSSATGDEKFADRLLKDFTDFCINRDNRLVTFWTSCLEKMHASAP

T1 sequence (O75140 whole entry, chain 1 of 3): as the sequence (O75140 whole entry) above
T1 sequence (Q8WTW4 whole entry, chain 2 of 3): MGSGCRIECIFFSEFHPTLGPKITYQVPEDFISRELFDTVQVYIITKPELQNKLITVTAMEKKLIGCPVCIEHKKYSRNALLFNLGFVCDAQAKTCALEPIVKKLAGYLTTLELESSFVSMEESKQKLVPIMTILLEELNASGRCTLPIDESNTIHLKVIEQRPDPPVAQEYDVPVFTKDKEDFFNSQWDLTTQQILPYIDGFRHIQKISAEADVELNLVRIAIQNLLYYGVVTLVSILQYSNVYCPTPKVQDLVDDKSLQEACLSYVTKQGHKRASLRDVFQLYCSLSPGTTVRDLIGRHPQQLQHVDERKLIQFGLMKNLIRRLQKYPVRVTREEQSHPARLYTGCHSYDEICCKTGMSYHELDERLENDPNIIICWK
T1 sequence (Q12980 whole entry, chain 3 of 3): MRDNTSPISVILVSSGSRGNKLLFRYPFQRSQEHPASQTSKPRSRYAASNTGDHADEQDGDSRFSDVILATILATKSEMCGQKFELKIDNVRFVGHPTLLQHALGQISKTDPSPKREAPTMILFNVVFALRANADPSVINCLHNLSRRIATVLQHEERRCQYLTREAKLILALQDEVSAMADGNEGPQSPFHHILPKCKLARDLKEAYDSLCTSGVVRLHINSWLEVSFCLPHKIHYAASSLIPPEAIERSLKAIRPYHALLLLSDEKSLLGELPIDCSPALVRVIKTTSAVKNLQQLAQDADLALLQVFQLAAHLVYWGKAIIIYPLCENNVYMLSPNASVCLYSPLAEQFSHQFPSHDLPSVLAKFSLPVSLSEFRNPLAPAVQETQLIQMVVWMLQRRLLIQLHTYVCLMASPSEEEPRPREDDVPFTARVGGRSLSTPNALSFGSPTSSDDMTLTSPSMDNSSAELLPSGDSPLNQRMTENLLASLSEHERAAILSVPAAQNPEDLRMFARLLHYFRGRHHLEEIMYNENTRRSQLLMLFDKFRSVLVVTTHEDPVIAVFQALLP

Binder: B1
- binding result [1]: no binding
- binding result [2]: no binding

Binder: B2
- binding result [1]: no binding

Binder: B3
- binding result [3]: no binding
- binding result [4]: no binding

Binder: B4
- binding result [1]: no binding

Binder: B5
- binding result [5]: no binding
